B1: "Lethal(3)malignant brain tumor-like protein 3" (Homo sapiens), Q96JM7 (parent)
chain: MTESASSTSGQEFDVFSVMDWKDGVGTLPGSDLKFRVNEFGALEVITDENEMENVKKATATTTWMVPTAQEAPTSPPSSRPVFPPAYWTSPPGCPTVFSEKTGMPFRLKDPVKVEGLQFCENCCQYGNVDECLSGGNYCSQNCARHIKDKDQKEERDVEEDNEEEDPKCSRKKKPKLSLKADTKEDGEERDDEMENKQDVRILRGSQRARRKRRGDSAVLKQGLPPKGKKAWCWASYLEEEKAVAVPAKLFKEHQSFPYNKNGFKVGMKLEGVDPEHQSVYCVLTVAEVCGYRIKLHFDGYSDCYDFWVNADALDIHPVGWCEKTGHKLHPPKGYKEEEFNWQTYLKTCKAQAAPKSLFENQNITVIPSGFRVGMKLEAVDKKNPSFICVATVTDMVDNRFLVHFDNWDESYDYWCEASSPHIHPVGWCKEHRRTLITPPGYPNVKHFSWDKYLEETNSLPAPARAFKVKPPHGFQKKMKLEVVDKRNPMFIRVATVADTDDHRVKVHFDGWNNCYDYWIDADSPDIHPVGWCSKTGHPLQPPLSPLELMEASEHGGCSTPGCKGIGHFKRARHLGPHSAANCPYSEINLNKDRIFPDRLSGEMPPASPSFPRNKRTDANESSSSPEIRDQHADDVKEDFEERTESEMRTSHEARGAREEPTVQQAQRRSAVFLSFKSPIPCLPLRWEQQSKLLPTVAGIPASKVSKWSTDEVSEFIQSLPGCEEHGKVFKDEQIDGEAFLLMTQTDIVKIMSIKLGPALKIFNSILMFKAAEKNSHNEL

Variants of: B1
Conditions: with dnmt1_human DNMT1, P26358
Chain of dnmt1_human DNMT1, P26358 (P26358 whole entry): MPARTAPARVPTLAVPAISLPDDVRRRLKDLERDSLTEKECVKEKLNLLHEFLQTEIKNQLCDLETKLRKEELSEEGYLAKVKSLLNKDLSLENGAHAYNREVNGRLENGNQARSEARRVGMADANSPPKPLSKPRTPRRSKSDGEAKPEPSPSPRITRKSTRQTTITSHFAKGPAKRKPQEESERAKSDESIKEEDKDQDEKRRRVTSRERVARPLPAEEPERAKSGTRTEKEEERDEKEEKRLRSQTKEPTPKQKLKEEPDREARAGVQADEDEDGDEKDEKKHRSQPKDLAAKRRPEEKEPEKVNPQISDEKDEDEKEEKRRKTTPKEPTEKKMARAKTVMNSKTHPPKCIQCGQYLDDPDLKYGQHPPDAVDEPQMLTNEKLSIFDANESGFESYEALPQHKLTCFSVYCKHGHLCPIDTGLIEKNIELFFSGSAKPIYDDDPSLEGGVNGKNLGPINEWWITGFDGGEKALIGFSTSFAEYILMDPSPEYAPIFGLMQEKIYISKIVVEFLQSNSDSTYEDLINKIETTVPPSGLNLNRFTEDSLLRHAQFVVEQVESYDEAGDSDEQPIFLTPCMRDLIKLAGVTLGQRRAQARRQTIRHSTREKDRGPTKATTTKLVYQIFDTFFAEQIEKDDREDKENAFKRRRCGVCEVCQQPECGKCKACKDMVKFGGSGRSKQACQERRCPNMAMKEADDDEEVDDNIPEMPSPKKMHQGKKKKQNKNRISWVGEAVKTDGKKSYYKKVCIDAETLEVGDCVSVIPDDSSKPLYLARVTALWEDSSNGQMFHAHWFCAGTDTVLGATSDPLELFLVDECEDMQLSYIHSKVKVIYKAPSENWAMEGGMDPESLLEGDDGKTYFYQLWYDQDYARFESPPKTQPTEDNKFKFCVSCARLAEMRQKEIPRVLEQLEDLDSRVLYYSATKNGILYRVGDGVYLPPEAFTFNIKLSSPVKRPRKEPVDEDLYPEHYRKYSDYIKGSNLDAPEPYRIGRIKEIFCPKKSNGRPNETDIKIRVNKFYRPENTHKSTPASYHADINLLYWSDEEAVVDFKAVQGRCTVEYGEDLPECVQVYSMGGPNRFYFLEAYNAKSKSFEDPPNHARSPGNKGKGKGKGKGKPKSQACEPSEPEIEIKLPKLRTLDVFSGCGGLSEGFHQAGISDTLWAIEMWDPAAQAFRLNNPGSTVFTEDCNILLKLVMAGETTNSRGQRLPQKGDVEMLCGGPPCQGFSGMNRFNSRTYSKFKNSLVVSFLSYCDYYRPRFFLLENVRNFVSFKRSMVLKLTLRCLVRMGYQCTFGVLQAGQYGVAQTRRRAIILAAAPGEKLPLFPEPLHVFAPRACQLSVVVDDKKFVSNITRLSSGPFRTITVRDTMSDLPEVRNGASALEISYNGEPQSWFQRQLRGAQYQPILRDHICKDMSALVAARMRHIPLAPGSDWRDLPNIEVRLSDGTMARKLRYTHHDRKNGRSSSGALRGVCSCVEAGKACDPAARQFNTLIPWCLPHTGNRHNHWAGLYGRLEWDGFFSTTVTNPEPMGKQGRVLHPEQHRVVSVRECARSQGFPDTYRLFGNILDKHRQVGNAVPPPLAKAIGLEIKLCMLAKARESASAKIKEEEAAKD

| Variant | effect of a mutation on the interaction |
| --- | --- |
| D381N | disrupting interaction strength |

Variants of: B1
Conditions: with dnmt1_human DNMT1, P26358
Remark: another data set of the same source

| Variant | effect of a mutation on the interaction |
| --- | --- |
| D381N | decreasing interaction strength |
